Assay results taken from article PMC6399465.
pKd: −log10 of the molar value.

Biological target: biotinylated IRF3-Flag (UniProt Q14653)
Test: BLI; Forte-Bio Octet Red; 10 ug/ml biotinylated IRF3-Flag coupled to biosensors, immersed in ICP27-Flag (50, 200, 500 or 800 nM); proteins in PBS

Chain of UniProt Q14653 (Q14653 whole entry): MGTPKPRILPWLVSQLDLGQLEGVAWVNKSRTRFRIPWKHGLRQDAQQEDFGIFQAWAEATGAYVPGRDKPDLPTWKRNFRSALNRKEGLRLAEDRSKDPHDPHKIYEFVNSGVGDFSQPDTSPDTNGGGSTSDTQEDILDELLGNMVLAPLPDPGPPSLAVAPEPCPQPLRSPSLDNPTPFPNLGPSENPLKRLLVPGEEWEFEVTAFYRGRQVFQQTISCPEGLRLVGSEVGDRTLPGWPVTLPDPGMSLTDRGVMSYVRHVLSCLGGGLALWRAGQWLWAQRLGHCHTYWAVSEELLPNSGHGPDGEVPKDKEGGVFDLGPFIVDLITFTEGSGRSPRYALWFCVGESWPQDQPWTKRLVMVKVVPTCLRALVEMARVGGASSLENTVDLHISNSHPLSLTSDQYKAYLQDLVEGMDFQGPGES

“ICP27-Flag (purified from HEK 293F) (from UniProt P28276 1-512) (natural protein)” gave a pKd of 7.69.
